Data taken from patent US6551840B2, “Method of screening TGF-β-inhibiting substances” (Chugai Seiyaku Kabushiki Kaisha, priority 1997, dated 2003).

Assays:
Format in all cases: cell-based
TAB1 = molecular target: T1, TAB1 (Homo sapiens, UniProt Q15750); assay: Animal cell 2-hybrid system in CHO cells, luciferase activity; conditions: 72 hours after gene introduction, similar to pM-TAK1 and pVP16-C68
T1 construct: expressed in transfected cells; host or cells: CHO cells
T1 sequence (Q15750 437-504): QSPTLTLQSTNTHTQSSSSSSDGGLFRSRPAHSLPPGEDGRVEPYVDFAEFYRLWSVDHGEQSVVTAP
Description: It was analyzed whether a polypeptide (TAK1-DN) comprising Glu at position 77 to Gln at position 303 of the TAK1 polypeptide as set forth in SEQ ID NO: 4 inhibits binding between the TAK1 polypeptide and the TAB1 polypeptide and whether it can inhibit the activation of the TAK1 polypeptide in animal cells by an animal cell 2-hybrid system (Dang et al., (1991) Mol. Cell. Biol. 11, 954-962) using the TAB1 polypeptide and the TAK1 polypeptide.
First, a gene encoding a full-length TAK1 and TAK1-DN and a gene encoding the GAL4 DNA-binding domain (GAL4-BD) were ligated to construct an expression vector. A gene encoding a full-length TAK1 was prepared by digesting yeast 2-hybrid expression plasmid pBTMHu11F (Shibuya H. et al., (1996) 272, 1179-1182) with restriction enzymes EcoRI and PstI, and was then linked to the EcoRI/Pst site of an expression vector pM (manufactured by CLONTECH) containing the GAL4-BD gene, which was termed an animal cell 2-hybrid expression plasmid pM-TAK1. […]
After further incubating for 72 hours, luciferase activity in each cell extract was determined using the Dual-LuciferaseTM Assay System (manufactured by Promega). […] The efficiency of gene introduction was corrected with the measured value of luciferase activity of Renilla by pRL-SV40.

[1] = tested on: mouse kidney mesangial cell line SV40MES13; assay: Fibronectin EIA in SV40MES13 cells expressing TAK1-DN with or without TGF-β; conditions: 2.5 ng/ml TGF-β, 24 hours; for increase of fibronectin in the culture supernatant by TGF-β addition: control MES/NEO about 3.3 fold; for increase of fibronectin in the extracellular matrix extract by TGF-β addition: control MES/NEO about 3.8 fold
Text: Then, pTAK1DN or pCOS1 that contains no inserted genes as a control vector was linearized by digesting with a restriction enzyme PvuI. These linearized vectors were introduced by electroporation into human fibroblast-derived HT-1080 (ATCC CCL 121), a mouse kidney mesangial cell line SV40MES13 (ATCC CRL 1927), and a mink pulmonary epithelial cell line Mv1Lu (ATCC CCL 64), and cells into which the gene was introduced were selected using G418 (manufactured by GIBCO-BRL).
(§1) The mouse mesangial cell line SV40MES13 (MES/DN3 and MES/DN6) into which pTAK1DN had been introduced and the control cells (MES/NEO) into which pCOS1 containing no inserted genes had been introduced were incubated in a low-serum medium (Medium 199 containing 0.2% FBS) with or without 2.5 ng/ml TGF-β for 24 hours. The amount of fibronectin in the culture supernatant or the extracellular matrix extract prepared using 1 M urea solution was determined by the EIA method as described in Example 7.

[2] = tested on: mouse kidney mesangial cell line SV40MES13; assay: Type I and type IV collagen EIA in SV40MES13 cells expressing TAK1-DN with or without TGF-β; conditions: 2.5 ng/ml TGF-β, 24 hours; for increase of type IV collagen in the culture supernatant by TGF-β addition: control MES/NEO about 2.0 fold; for increase of type I collagen in the culture supernatant by TGF-β addition: control MES/NEO about 3.6 fold
Description: as §1
Furthermore, the amount of type I and type IV collagen in the culture supernatant was determined by the EIA method. Thus, 100 μl of the culture supernatant was added to a 96-well microtiter plate (manufactured by Nunc), and the plate was incubated overnight at 4° C. After washing, it was blocked using the above 1% BSA solution, and then 5000-fold diluted rabbit anti-mouse type I collagen antibody (manufactured by LSL) or rabbit anti-mouse type IV collagen antibody (manufactured by LSL) was added, and was further incubated at room temperature for 2 hours. After washing, alkaline phosphatase-labeled goat anti-rabbit Ig antibody (manufactured by TAGO) was added, and was further incubated at room temperature for one hour. Then the substrate solution (manufactured by Sigma) was added and absorbance at […] was measured. As a standard, mouse type I collagen (manufactured by Chemicon) or mouse type IV collagen (manufactured by Cosmobio) was used.

B1: TAK1-DN: polypeptide of Glu at position 77 to Gln at position 303 of TAK1 (SEQ ID NO: 4), the TAB1 binding site; dominant negative inhibitor (protein)
chain: ELRQLSRVNHPNIVKLYGACLNPVCLVMEYAEGGSLYNVLHGAEPLPYYTAAHAMSWCLQCSQGVAYLHSMQPKALIHRDLKPPNLLLVAGGTVLKICDFGTACDIQTHMTNNKGSAAWMAPEVFEGSNYSEKCDVFSWGIILWEVITRRKPFDEIGGPAFRIMWAVHNGTRPPLIKNLPKPIESLMTRCWSKDPSQRPSMEEIVKIMTHLMRYFPGADEPLQYPCQ
- binding to TAB1: luciferase activity for pM-TAK1DN and pVP16-C68 (TAB1): binds to TAB1
- increase of fibronectin in the culture supernatant by TGF-β addition ([1]; MED/DN3 cells): about 2.4 fold
- increase of fibronectin in the extracellular matrix extract by TGF-β addition ([1]; MED/DN3 cells): about 2.6 fold
- increase of fibronectin in the culture supernatant by TGF-β addition ([1]; MES/DN6 cells): ~2.3 fold
- increase of fibronectin in the extracellular matrix extract by TGF-β addition ([1]; MES/DN6 cells): ~2.1 fold
- increase of type IV collagen in the culture supernatant by TGF-β addition ([2]; MED/DN3 cells): about 1.5 fold
- increase of type I collagen in the culture supernatant by TGF-β addition ([2]; MED/DN3 cells): about 2.0 fold
- increase of type IV collagen in the culture supernatant by TGF-β addition ([2]; MES/DN6 cells): ~1.4 fold
- increase of type I collagen in the culture supernatant by TGF-β addition ([2]; MES/DN6 cells): about 2.0 fold
